In the nanobody polyreactivity screen of Harvey et al. (2022):

Test: yeast display, Sf9 membrane polyspecificity reagent, FACS + sequencing; frameworks hold sequencing errors
Method in brief: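 After 36–48 hours of galactose induction, yeast (Saccharomyces cerevisiae BJ5465) displaying a synthetic nanobody library were stained at 4 °C for 1 hour with 10% biotinylated, detergent-solubilized Sf9 membrane reagent. Streptavidin microbeads enriched the stained cells before FACS sorting into low and high (top ~1%) gates on anti-HA and streptavidin fluorescence. Each clone's polyreactivity label reflects its gate of origin.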

Row | Sequence | polyreactivity (PSR sort gate)
1 | QVQLVESGGCLVQAGGSLRLSCAASGRIFTYYGMGWYRQAPGKERELVAAITRSGGSTRYADSVKGRFTISRDNSKNTVYLQMNSLKPEDTAVYYCNAGGYWRYDYWGQGTQVTVSS | low polyreactivity
2 | QVQLVESGGCLVQAGGSLRLSCAASGRIFYDNVMGLYRQAPGKEREFVAAISRRGGSTDYADSVKGRFTISRDNAKNTVYLQMNSLKPEDTAVYYCADDAPGADFDYWGQGTQVTVSS | low polyreactivity
3 | QVQLVESGGCLVQAGGSLRLSCAASGRIFYIYAMGWYRQAPGKERELVAAITNGGSTNYADSVKGRFTISRDNAKNTVYLQMNSLKPEDTAVYYCAASVGTYAYGRTVYRYDYWGQGTQVTVSS | low polyreactivity
4 | QVQLVESGGCLVQAGGSLRLSCAASGRIFYNYAMGWYRQAPGKERELVAAISGSGGSTYYADSVKGRFTISRDNAKNTVYLQMNSLKPEDTAVYYCSTSGPQYYSRNFDYWGQGTQVTVSS | low polyreactivity
5 | QVQLVESGGCLVQAGGSLRLSCAASGRIIGANAMGWYRQAPGKERELVAAITKNGGRTYYADSVKGRFTISRDNAKNTVYLQMNSLKPEDTAVYYCARGLDVISYGYDYWVQGTQVTVSS | high polyreactivity
6 | QVQLVESGGCLVQAGGSLRLSCAASGRSLTDYAMGWYRKAPGKERELVAAISRSGGSTYYADSVKGRFTISRDHAKNTVYLQMNSLKTEDTAVYYCAAGTPKRVGGGYWGQCTQVTVSS | high polyreactivity
7 | QVQLVESGGCLVQAGGSLRLSCAASGRTFINNAMGWYRQAPGKERELVAAISWDGGRTYYADSVKGRFTISRDNAKNTVYLQMNSLKPEDTAVYYCNAQPNYAYHGEDDYWGQGTQVTVSS | high polyreactivity
8 | QVQLVESGGCLVQAGGSLRLSCAASGRTFRVNAMGWYRQAPGKEWELVAAITWRGGSTYYADSVKGRFTISRDIAKYTVYLQMNSLKPEDTAVYYCAARYSSSSRRQKSDYWGQGTQVTVSS | high polyreactivity
9 | QVQLVESGGCLVQAGGSLRLSCAASGRTFRYYAMGWYRQAPGKERELVAAISSSGDRTYYADSVKGRFTISRDNAKNTVYLQMNSLKPEDTAVYYCAADRGARGDYWGQGTQVTVSS | high polyreactivity
10 | QVQLVESGGCLVQAGGSLRLSCAASGRTFSYYAMGWYRQAPGKVRELVAAISRRGGSTTYADSVKGRFTISRDNAKNTVYLQMNSLKPEDTAVYYCNTYPPAHREYASWGQGTQVTVSS | high polyreactivity
11 | QVQLVESGGCLVQAGGSLRLSCAASGRTFVTYAMRWYRQAPGKERELVAGISRRGGRTYYADSVKGRFTISRDNAKNTVYLQMNSLKPEDTAVYYCAALTYYGSDYWGQGTQVTVSS | high polyreactivity
12 | QVQLVESGGCLVQAGGSLRLSCAASGRTFYAYAMGWYRQAPGKERELVAAISWRGGDTYYADSVKGRFTISRDNAKNTVYLQMNSLKPEETGVYYCAKYLSRQSGDGEYDYWGQGTQVTVSS | low polyreactivity
13 | QVQLVESGGCLVQAGGSLRLSCAASGRTLHYYAMGWYIPAPGKVRELVARINWSGGSTYYADSVKGRFTISRDNAKKTVYLQMNSLKPEDTAVYYCAARKNRAYGYWGQGTQVTVSS | high polyreactivity
14 | QVQLVESGGCLVQAGGSLRLSCAASGSIFAEYAMGWSRQAPGKERELVASISSRGGRTFYADSVKGRFTISRDNAKNTVYLQMNSLKPEDTAVYYCNALRIYITKKTGYGYWGQGTQVTVSS | high polyreactivity
15 | QVQLVESGGCLVQAGGSLRLSCAASGSIFGTYTMGWYRQAPGKERELVATISNSGGNTYADSVKGRFTISRDNAKNTVNLQMNSLKPEDTAVYYCAVVGGEFSSYGYWGQGTQVTVSS | low polyreactivity
16 | QVQLVESGGCLVQAGGSLRLSCAASGSIFGWYDMGWYRQARGYERELVAAMTSDGSTNYADSVKGRFTISRDNAKNTVYLQKNSLKPEDTAVYYCAQDGWYYYYPYDYWGQGTQVTVSS | low polyreactivity
17 | QVQLVESGGCLVQAGGSLRLSCAASGSIFHPYAMGWYRPAPGKERELVAAISKSGGNTYYADSVKGRFTISRDNAKNTVYLQMNSLKPEHTEVYYCAADYYRGRYSDRYDYWGQGTQVTVSS | low polyreactivity
18 | QVQLVESGGCLVQAGGSLRLSCAASGSIFNSNAMGWYRPARGKERELVAVISWSDGSTRYADSVKGRFTISRDNAKNTVYLQMHSLKPEDTAVYYCNADLVYYYRQEVDYWGQGTQVTVTS | low polyreactivity
19 | QVQLVESGGCLVQAGGSLRLSCAASGSIFPVNAMGWYRQAPGKERELVAAITSSGGTTYYADSVKGRFTISRDNAKNTVYLQMNSLKPEDTAVYYCAADVDVSYWRMEYWGQGTQVTVSS | high polyreactivity
20 | QVQLVESGGCLVQAGGSLRLSCAASGSIFVWNVMGWYRKAPGKERELVAAISWRGGTTYYADSVKGRFTISRDNAKNTVYLQMNSLKPEDTAVYYCAKQKHWSVHGGYNYWGQGTQVTVSS | high polyreactivity
21 | QVQLVESGGCLVQAGGSLRLSCAASGSTFGYYAMGWYRQAPGKERELVAAITSNDGSTHYADSVKGRFTISRDNAKNTVYLQMNSLKPEDTEVYYCNARSFVAVISSFVYWGQGTQVTVSS | low polyreactivity
22 | QVQLVESGGCLVQAGGSLRLSCAASGSTIGVNAMGWYRQAPGKERELVAAISRGGGRTYYADSVKGRFTISRDNAKNTVYLQMNSLKPEDTAVYYCNTDFGARMGYCGQGTQVTVSS | high polyreactivity

Row | Sequence | polyreactivity (PSR sort gate)
23 | QVQLVESGGCLVQAGGSLRLSCAASGSTIPLYAMGWYIQAPGKERELVAAITSGGGNTYYADSVKGRYTISRDNAKNTVYLQKTSLKPDDTAVYYCAAVVGYKSYYSYEYDYWGQGTQVNVSS | low polyreactivity
24 | QVQLVESGGCLVQAGGSLRLSCAASGSTYKLNAMGWYRQAPGKEREMVAAISRGGRTNYADSVKGRFTISRDNAKNTVYFQMNSLNPEDTAVYYCAKDVAGLFHVGALYYYWGQGSQVTVSS | low polyreactivity
25 | QVQLVESGGCLVQAGGSLRLSCAASGYIFSGYAMGWYRQAPGKERELVAAISSNGGSTYYADSVKGRFTISRDNAKNTVYLPMNSMKPEDTAVYYCKRGLAARVGRVDYWGQGTHVTVSS | low polyreactivity
26 | QVQLVESGGCLVQAGGSLRLSCAASRSTFSYNAMGWYRHAPRKERELVASSSTSGGSTYYADSVKGRFSISRDNAKNTVYLQINSLTPEDTAVYYCNAPTSDIYSDFDYWGQGTQVTVSS | low polyreactivity
27 | QVQLVESGGCLVQAGGSLRLSCAASVRTYETNAKGWYIQAPGKEREFVAAISSSGASTYYADSVKGSFTISRYNAKNTVYLQMNSLKTEDTAVYYCAARRREWGQGTQVTVSS | low polyreactivity
28 | QVQLVESGGCLVQAGGSLRLSCAPSGFIFPYYAMGWYRPAPGQERALVAAITSSGGSTYYADSVKGRFTISRDNAKNTVYLQMNSLKPEETAVYYCNKYRRYVDGYEMDYWGQGTQVTVSS | high polyreactivity
29 | QVQLVESGGCLVQAGGSLRLSCASSGRTFSWNAMGCYRQAPGKEREFVAAISNSGGSTYYADSVNGRFTISRDNAKNTVYLQMNSLKPEDTAVYYCAVYRYYGFSLWYDYWGQCTQVTVSS | low polyreactivity
30 | QVQLVESGGCLVQAGGSLRLSCASSGSTFVRYTLGRYRQAPGKEREMVARISRTSSTNYADSVKGRFTISRDNAKNTVYLQMNSLKPEDTSVYYCNAREYYPTKSRFKYWGQGTQVTVSS | low polyreactivity
31 | QVQLVESGGCLVQAGGSLRLSCPPSGSIFIYYAMGWYRHAPGKERELVAAISWSCGDTYYADSVKGRFTISRDNAKNTVYLQMNSLKPEDTAVYYCNADFDPYYPYTAWDSVLTHDEYWGQGTQVTVSS | low polyreactivity
32 | QVQLVESGGCLVQAGGSLRLSCSASGSIFNYNDMGWYRQAPGKERELVAAIDSSGTSTYYADSVKGRYTISRDNSKNNVYLQMTSLKPEDTAVYYCNADSSLGFGYWGQGTQVTVSS | low polyreactivity
33 | QVQLVESGGCLVQAGGSLRLSGAASGRIFGRNAMGWYRQAPGKERELVAAINSGVSTYYADSVKGRFTIARDNAKNTVYLQMNSLKPEDTAVYYSATDTDYYLLYLYYYWGQGTQVTVSS | low polyreactivity
34 | QVQLVESGGCLVQAGGSLRLTCAASGFTLGFNAMGWYRQAPGKERELVAAITIGGTTYYADSVKGRFTLSRDNAKNTVYLQMNSLKPEDTAVYYCAASPVWWYDYWGQGTQVTVSS | low polyreactivity
35 | QVQLVESGGCLVQAGGSLRLTCAASGRTFYWNTMGWYRQAPGKERELVAAISSSGDSTYYADSVKGRFTISRDNAKNTVYLQMNCLKPEDTAVYYCAAGRRGTSTTWGQGSQVTVSS | high polyreactivity
36 | QVQLVESGGCLVQAGGSLRYSCAASGRTFRYYGMGWYRQAPGKERELVAAISWSGGSTYYADSVKGRFTISRDNAKNTVYLQMNSLKPEDTAVYYCKVAFHWQRFHHKSAAYDYWGQGTQVTVSS | high polyreactivity
37 | QVQLVESGGCLVQAGGSLSLSCAASGRIFGAYAMGWYRQAPGTERELVAAISSGGSTYYADSVKGRFTISRDNAKNTVYLQMNSLKPEDTAVYYCAASSGNGYGYWGQGTQVTVSS | high polyreactivity
38 | QVQLVESGGCLVQAGGSLSLSCAHSGGNFTFYAMVWYTQAPGKERELVATINWSGGSTYYADSVKGRFTISRDNAKITVYLQMNSLKPADTAVYYCNAAWPYKSVEYWGHGTQVTVSS | low polyreactivity
39 | QVQLVESGGCLVQAGGSRSLSCAASGSIFYRNAMGWYRQAPGKERELVAAIRGSDGSTYYADSVKGRFTISRDNGKNTVYLQMNSLKPEDTAVYSCNADTPTWPLDYWGQGTQVTVSS | low polyreactivity
40 | QVQLVESGGCLVQAGGTLRLSCDASGITFSRNTMGWYRQAPGKERELVAAITLRGGGRTYYADSVKGRFTISRDNAKNTDYLQLNSLNPEDTAVYYCARVYSSEKAYGYWGQGTQVTVSS | high polyreactivity
41 | QVQLVESGGDLVQAGGSLRLSCAASGITFVYNAMGWYRQAPGKESELVAGITWSGSSTYYADSVKGRFTISRDNAKNTVYFQMNSLKPEDTAVYYCAAYLYERTTRYRVYLQWKHGYWGQGTQVTVSS | high polyreactivity
42 | QVQLVESGGDLVQAGGSLRLSCAASGSIFYINAMGWYRQAPGKERELVASISYSGTSTYYADSVKGRFTISRDNAKNTVYLQMNSLKPEDTAVYYCNSEDTPGAGDGYWGQGTQVTVSS | low polyreactivity
43 | QVQLVESGGGCSGGRSLRLSCAASGLIFDDNAMGWYRQAPGKERELVAAITWSTSSTYYADSVKGRFTISRDNAKNNVYLQMNSLKREDTAVYYCNKRYKFRYYYWGQGTQVTVSS | low polyreactivity
